The values that follow come from publication PMC11102866.

Series [1] concerns the target NR5A2 wild type (Homo sapiens) (UniProt O00482). Briefly: smFRET. To be noted: EMSA: 20 mM Tris-HCl pH 7.5, 120 mM NaCl, 1 mM MgCl2, 10 uM ZnCl2, 1 mM DTT, 100 ug/ml BSA, room temperature, 30 min, 50 nM DNA or nucleosome.
The target in series [2] is NR5A2 D159A D159A (Homo sapiens) (UniProt O00482). Briefly: smFRET. Particulars: EMSA: 20 mM Tris-HCl pH 7.5, 120 mM NaCl, 1 mM MgCl2, 10 uM ZnCl2, 1 mM DTT, 100 ug/ml BSA, room temperature, 30 min, 50 nM DNA or nucleosome.
Series [3] addresses nucleosome reconstituted with Alexa-Fluor-647-labeled H2A-K119C–H2B, H3.3–H4 and DNA carrying the Nr5a2 motif (mouse) (UniProt P10853). Briefly: FRET or BRET; single-molecule FRET (TIRF): nucleosomes held on the surface by biotin-streptavidin, Cy3 on the 5' end of 601 DNA next to the motif at SHL +5.5, Alexa Fluor 647 on H2A-K119C; NR5A2 flowed in at 0.1 or 0.5 uM (quantified at 0.1 uM); 50 mM Tris pH 7.6, 120 mM NaCl, 1 mM MgCl2, 10 uM ZnCl2, 10% glycerol, 1 mM DTT, 100 ug/ml BSA; 22.5 C; low-FRET state taken as NR5A2 dwell time, single exponential fits, three replicates. Background: BRET reads energy transfer from a luciferase to a nearby fluorophore.

Turning to “601 nucleosome SHL +5.5 for smFRET, with linker DNA”, the binding signal in series [1] was 20.3 s; in series [1] (mean lifetime of low-FRET (unwrapped) state), 16.4 s; in series [2] it was 16.4 s; in series [2] (mean lifetime of low-FRET (unwrapped) state, less stable than wild type), 9.19 s.
In series [3], “human NR5A2 (from UniProt O00482 1-541) (natural protein)” returned an average lifetime of the high-FRET (wrapped, unbound) state of 20.3 s and a duration of the low-FRET (unwrapped) state, taken as NR5A2 dwell time of 16.4 s.
In series [3], “human NR5A2-D159A (from UniProt O00482 1-541) (natural protein)” yielded an average lifetime of the high-FRET (wrapped, unbound) state of 16.4 s and a duration of the low-FRET (unwrapped) state, taken as NR5A2 dwell time of 9.19 s.
